Experimental data reported in paper PMC3509953 (Journal of molecular biology, 2012).
Where a chain is given by its changes, count along the chain named. In names and notes the source's numbering stands.

B1: Protein related to DAN and Cerberus (PRDC), wild type, bacterially produced (natural protein, mouse, UniProt O88273 22-168, looked up)
chain: RKNRPAGAIPSPYKDGSSNNSERWHHQIKEVLASSQEALVVTERKYLKSDWCKTQPLRQTVSEEGCRSRTILNRFCYGQCNSFYIPRHVKKEEDSFQSCAFCKPQRVTSVIVELECPGLDPPFRIKKIQKVKHCRCMSVNLSDSDKQ
modifications: a single glutathione (by mass spectrometry; residue not stated)
B2: BMP4 (ligand, UniProt P12644 293-408, looked up)
chain: SPKHHSQRARKKNKNCRRHSLYVDFSDVGWNDWIVAPPGYQAFYCHGDCPFPLADHLNSTNHAIVQTLVNSVNSSIPKACCVPTELSAISMLYLDEYDKVVLKNYQEMVVEGCGCR
B3: BMP2 (ligand, UniProt P12643 283-396, looked up)
chain: QAKHKQRKRLKSSCKRHPLYVDFSDVGWNDWIVAPPGYHAFYCHGECPFPLADHLNSTNHAIVQTLVNSVNSKIPKACCVPTELSAISMLYLDENEKVVLKNYQDMVVEGCGCR
B4: BMP7 (ligand, UniProt P18075 293-431, looked up)
chain: STGSKQRSQNRSKTPKNQEALRMANVAENSSSDQRQACKKHELYVSFRDLGWQDWIIAPEGYAAYYCEGECAFPLNSYMNATNHAIVQTLVHFINPETVPKPCCAPTQLNAISVLYFDDSSNVILKKYRNMVVRACGCH
B5: PRDC with the unpaired cysteine mutated to serine (C120S), bacterially produced (natural protein, mouse, UniProt O88273 22-168, looked up)
chain: B1 chain with C99S
B6: activin A (ligand, UniProt P08476 311-426, looked up)
chain: GLECDGKVNICCKKQFFVSFKDIGWNDWIIAPSGYHANYCEGECPSHIAGTSGSSLSFHSTVINHYRMRGHSPFANLKSCCVPTKLRPMSMLYYDDGQNIIKKDIQNMIVEECGCS
B7: DAN (differential screening selected gene abberative in neuroblastoma) (natural protein, human)
chain: AAPPPINKLALFPDKSAWCEAKNITQIVGHSGCEAKSIQNRACLGQCFSYSVPNTFPQSTESLVHCDSCMPAQSMWEIVTLECPGHEEVPRVDKLVEKILHCSCQACGKEPSHEGLSVYVQGEDGPGSQPGTHPHPHPHPHPGGQTPEPEDPPGAPHTEEEGAEDLEVLFQ

How the values were obtained:
SEC = molecular target: the molecule itself; experiment: SEC
[1] = molecular target: B5; experiment: SPR
AUC = molecular target: the molecule itself; experiment: AUC
[2] = molecular target: the molecule itself; experiment: MALDI-TOF mass spectrometry
cross-linking = molecular target: the molecule itself; experiment: cross-linking

Binder: B1
stoichiometry N (SEC): 2

Binder: B2
Kd [1]: 70.7 ± 2.6 nM

Binder: B3
Kd [1]: 57.1 ± 7.8 nM

Binder: B4
Kd [1]: 86.6 ± 3.7 nM

Binder: B5
stoichiometry N (AUC): 2

Binder: B6
stoichiometry N [2]: 2

Binder: B7
stoichiometry N (cross-linking): 2
